Experimental data taken from article PMC11316652.

Molecular target: MSLN-Fc2 (Mesothelin-antibody Fc fusion protein) (human)
Test: SPR

Row | Substance | Kd
1 | Muc16 SEA10 module, uncleaved (with the Siderocalin fusion partner) (domain or fragment) | 899 nM
2 | Muc16 SEA11 module, uncleaved (with the Siderocalin fusion partner) (domain or fragment) | > 10000 nM
